# B1: TPR t1 (parent)
# chain: GACCAAUCUGCCCUCAGAGCUCGAGAACAUCUUCGGAUGCAGAGGAGGCAGGCUUCGGUGGCGCGAUAGCGCCAACGUCCUCAACCUCCAAUGCAUCCCACCACAUGAUGAUGCCUGAAGAGCCUUGGUUUUUUG
# Variants of: B1
# Experiment: polymerase ribozyme fitness, log enrichment relative to wild type (log ratio); higher = more active; in vitro selection for triplet polymerase activity
# How it was run: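 A single round of triplicate in vitro selection, including frozen incubation at −7 °C, was applied to PCR-built, transcribed mutant libraries of each subunit of a heterodimeric triplet polymerase ribozyme. Illumina sequencing of input and output libraries retained genotypes with ≥10 input reads and ≥1 read per output. Fitness is the base-2 logarithm of genotype enrichment divided by wild-type enrichment, from inverse-variance-weighted replicate averages.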
row,Variant,polymerase ribozyme fitness (log ratio)
1,A2G C3G C31G A43U G60U C94U C114G,-7.19
2,A2U C114U,-4.35
3,A2G U59G G122A U129C,-0.941
4,C3G U9A C85A,-2.07
5,A2U C98U,-3.18
6,C3U C13G A111C,-1.32
7,C3U C12U C89G,-1.64
8,A2C A46C U55A C64G A84U,-7.2
9,A2C C12G G69C G110U G128C,-5.29
10,A2G U78A G128A,-2.62
11,A2U C40A,-3.29
12,A2G C13U C53U C72G,-0.398
13,A2U U9C C12A G51U C53A U55A G61U U78C G127U,-6.49
14,A2U G77C U116A C124A U130C,-0.208
15,A2G C34U,-4.37
16,A2C C12G G42U C49A C73A C82U A111C,-5.3
17,C3A C12U U54A G69U G77C,-3.81
18,C3U C73A G135U,-1.52
19,A2C G61A C94U,-0.931
20,C3U C20A G57A G60U G117A,-4.91
21,A2G C114A C124A,-0.647
22,A2U U21A C49U,-4.09
23,C3A C28U G57A G69U C82U,-3.79
24,C3A U59G U78A C89A G120U,-3.26

row,Variant,polymerase ribozyme fitness (log ratio)
1,C3U C20A A46G C72G G113U,-0.27
2,A2G U32C C40G C49A,-1.76
3,C3A C40A G47A G60A A75U C86U C97U C123A U132A,-1.07
4,A2C C73U,-1.65
5,A2U U54A C72A C101G U129A U130A,-2.15
6,A2G G44C C62A C97U C115U G135A,-5.32
7,A2U C8U A41C C56G G77U G122A,-2.93
8,C3U C11U C13G U116C,-4.66
9,A2C C72A C115G,-3.29
10,C3A A83C C97U G110A,-3.93
11,C3G A16U U38G,-4.66
12,C3U C12A G60A,-1.22
13,A2G A5C G60A A74U C86U G135U,-1.91
14,C3A U7C G113C,-2.78
15,C3U C102U G117U,-4.61
16,C3A G23C C40A A84C G110C,-5.53
17,C3A C22G A37G A111G,-4.63
18,C3U C28A A41G C56U G120C,-5.25
19,A2C C12A A66U C104U,-3.52
20,C3U G39C G44A G77U U78A A119G,-1.19
21,C3A G61A,-1.23
22,A2C A6C C8A G71A A84U U129A,-2.03
23,C3U A29G C53U G57C C86G,-4.64
24,C3U C12G C85U,-1.47

row,Variant,polymerase ribozyme fitness (log ratio)
1,C3U C12G G71U,-0.231
2,A2U G47A C123A,-2.56
3,A2U C49A,-2.86
4,C3A A5U A29G U116C,-2.92
5,C3U G10A U21C G61A C98U A119U,-2.55
6,A2U G63A A84U C86U,-3.92
7,C3A C62U G93C,-2.92
8,A2G C4G C8G G47U U54C,-3.05
9,A2U U131G,-2.07
10,A2U C13U C72G C114U,-3.41
11,A2G A5G U7G U21G A43C G69U C88A C101U U129A,-3.72
12,A2G G52C G60U,0.0795
13,A2C G71A C115A C123U,-2.71
14,A2C G69A C114A,-4.75
15,C3G G10C C34G G42U G69U C82G C102A U109A,-5.83
16,C3G C13A,-3.57
17,A2C G61A C82G,-2.65
18,C3G G93U C98U G128C,-2.57
19,C3U G17C G117U,-6.24
20,C3G U81C A111C G128A U133G,-4.61
21,A2U A6G U92C A121C,-0.755
22,A2C G57C G71A U92G G120A,-6.04
23,A2G C4G C8G G47U U54C C72A,-2.53
24,A2G G57A C104A,-3.56

row,Variant,polymerase ribozyme fitness (log ratio)
1,C3G C28U G61U G120C U125G,-4.18
2,A2C C73U C76G U112G,-1.38
3,C3U C11A G120C,0.399
4,C3G C115A,-2.96
5,C3G A41C,-3.54
6,C3G C88G,-2.34
7,A2C C11A G48U C72U C80U G120U,-3.83
8,C3U C72U C98A,-5.34
9,C3U C13U C34U C62U C85U,-5.63
10,A2U C13U A41G A43U C49U U92C G93C C115U U131G U132A,-4.38
11,C3U G10U A41C C115U U126G,-6.14
12,C3G C8G C73U C101G G120U,-0.772
13,A2C C13G G36A G63A,-5.73
14,C3A G10U G69U C72U C101U,-1.82
15,A2U A83G,-3.47
16,C3G U96C G113U,-6.42
17,C3U C8A G25A C31G C70G U92A C94A C98G C99G G117U,-6.98
18,C3U C40U U54C U92G,-3.03
19,C3A A74C,-2.99
20,C3A C97A C114U,-5.53
21,A2U C62U,-2.96
22,A2G G52A C99U,-3.53
23,A2C C4U C13A C49A C56A G71A U87A,-6.32
24,A2G C12U A75U A111G G113A,-1.23

row,Variant,polymerase ribozyme fitness (log ratio)
1,A2C U87G,-1.65
2,A2C C12G A46C C72U G113U,-7.24
3,C3A A18G G19C A90U C123U U129G,-0.538
4,A2G C64U C89G U112A,-1.2
5,A2U C12A U55G G61A C102A C104U,-4.56
6,C3U C12A C79G,-2.97
7,C3A C12U,-0.986
8,C3A G110C U112A G117A U132C,-6.59
9,A2C C11U C70G G120A,-3.19
10,A2U G23C G39A A50U G61C A91C G93C A111U,-6
11,A2G G57C U59G A100U U106C,-0.973
12,A2C A41U U78G,-3.61
13,A2U C79U C104A,-4.26
14,C3G C34G C76G A91C U109G,-6.42
15,C3A A111C G128U U129A,-1.89
16,A2C C82A,-2.04
17,A2C G71U G93A U109A G120C,-6.66
18,C3G C86A,-3.1
19,C3A A41U C70A A91C U112G U125G G127U,-4.59
20,C3U C12U G110A,-0.836
21,A2G C12U G47A G63U G113U,-4.51
22,C3A G60A,-1.52
23,C3A G60U,-1.28
24,A2C C13G G93U G120U,-2.23

row,Variant,polymerase ribozyme fitness (log ratio)
1,C3G U9G A43G G61A C114A U131A,-3
2,C3A G48U,-2.67
3,C3U C86G G113C,-3.51
4,C3U C70U G110A,-2.71
5,A2U A43G G45A C72G A84G A111U,-6.25
6,A2C C70A U116C U126C U133A,-5.29
7,A2C A27C G127C G135U,-6.34
8,A2G G113A,-1.6
9,A2G G77A C80A C124A,-0.514
10,A2G A18C C115A C123U,-1.44
11,C3U C12A G61C A84C U130C U133G,-2.37
12,A2C C28U G71A U78A A90G,-5.83
13,C3G G63C A68C A111U U112G G113A,-5.32
14,A2U G45U,-3.96
15,C3U A37U C40A G60U,-1.23
16,A2U C4A A43G G47C A68G G113A C124U,-6.42
17,A2U C11A G51A A66G G69U C98U,-4.43
18,C3G C12G A83C U106A,-2.23
19,C3A G57A C114U,-4.29
20,C3A C8U,-1.3
21,A2G G52U A91U A95C,-3.47
22,A2C G63U C124U,-1.65
23,C3A G71A U130C,-0.935
24,A2G C8U U87A C89U C123A,1.08

row,Variant,polymerase ribozyme fitness (log ratio)
1,A2C U9G C20A G71A A121U,-3.49
2,A2U A5C C13U G48A G69A,-5.8
3,A2G C11A C49G G71U C85A U92C,-2.64
4,A2U G120A,-0.642
5,C3U C11U,-0.785
6,A2C G63A,-2.37
7,C3U C28A U112A,-2.92
8,A2G C73U,-0.754
9,A2G A46C,-0.998
10,C3U A24G G47C,-3.61
11,A2G C28U C70U G110U,-3.19
12,C3U C8A A16U U33A G44A G120C,-6.36
13,A2U C11U U21A,-1.96
14,C3U A6U G57A G120C,0.153
15,C3G G39A G51U G69U C79A U130G,-3
16,C3A G10A A75G C86G C98U G122A,-2.58
17,A2G A37C A111G,-1.49
18,A2G C12U A29U G69C A75G C94A C123U,-4.95
19,C3G C22A C124G G128C,-3.09
20,A2C C3G A90U C115U,-3.68
21,A2U U32C C79A,-4.3
22,C3A C62U A105G,-4.05
23,A2U C56A C64U G120C,-3.86
